# Data: patent US20200270588A1, “GLUCOSYL TRANSFERASE POLYPEPTIDES AND METHODS OF USE” (Syngenta Participations AG, priority 2017, published 2020)
# Residue numbers refer to the chain shown, from its start. Names and notes keep the numbering of the source.
# B1: A281C: bx9 SEQ ID NO:1 mutant (protein)
# chain: MASSRTGAGAGGRVVVFPFPFQGHFNPVMRLARALHARGLAITVFHSGALDPADYPADYRFVPVTVEADPKLLASEDIAAIVTTLNASCDAPFRARLSALLAAEGRDSVRCVFTDVSWNAVLTASSDLGVPALGMMTASAASLRDYMAYRTLIDKGYLPVKEERKEDPVPELPPYLVKDLLRVDTSDLEEFAELLARTVTAARRASGLIFNTFPLIETDTLAEIHKALSVPVFAVAPLNKLVPTATASLHGVVQADRGCLQWLDTQQPGSVLYVSFGSMACMDPHEFVELAWGLADSKRPFVWVVRPNLIRGFESGALPDGVEDEVRGRGIVVAWAPQEEVLAHPAVGGFLTHNGWNSTVEAISEGVPMVCCPRHGDQFGNMRYVCDVWKVGTELVGEQLERGQVKAAIDRLFGTKEGEEIKERMKEFKIAAAKGIGIGVDVDETASPRTDLTDLVDLIKSF
# modifications: Zea mays
# B2: T220K: bx9 SEQ ID NO:1 mutant (protein)
# chain: B1 chain with T220K, C281A
# modifications: Zea mays
# B3: A281Q: bx9 SEQ ID NO:1 mutant (protein)
# chain: B1 chain with C281Q
# modifications: Zea mays
# B4: A334Q: bx9 SEQ ID NO:1 mutant (protein)
# chain: B1 chain with C281A, A334Q
# modifications: Zea mays
# B5: I363M: bx9 SEQ ID NO:1 mutant (protein)
# chain: B1 chain with C281A, I363M
# modifications: Zea mays
# B6: T220A: bx9 SEQ ID NO:1 mutant (protein)
# chain: B1 chain with T220A, C281A
# modifications: Zea mays
# B7: G376M: bx9 SEQ ID NO:1 mutant (protein)
# chain: B1 chain with C281A, G376M
# modifications: Zea mays
# B8: T220Y: bx9 SEQ ID NO:1 mutant (protein)
# chain: B1 chain with T220Y, C281A
# modifications: Zea mays
# B9: A334V: bx9 SEQ ID NO:1 mutant (protein)
# chain: B1 chain with C281A, A334V
# modifications: Zea mays
# B10: I363L: bx9 SEQ ID NO:1 mutant (protein)
# chain: B1 chain with C281A, I363L
# modifications: Zea mays
# B11: T220L: bx9 SEQ ID NO:1 mutant (protein)
# chain: B1 chain with T220L, C281A
# modifications: Zea mays
# B12: T220C: bx9 SEQ ID NO:1 mutant (protein)
# chain: B1 chain with T220C, C281A
# modifications: Zea mays
# B13: A281M: bx9 SEQ ID NO:1 mutant (protein)
# chain: B1 chain with C281M
# modifications: Zea mays
# B14: A281K: bx9 SEQ ID NO:1 mutant (protein)
# chain: B1 chain with C281K
# modifications: Zea mays
# B15: F19M: bx9 SEQ ID NO:1 mutant (protein)
# chain: B1 chain with F19M, C281A
# modifications: Zea mays
# B16: T220I: bx9 SEQ ID NO:1 mutant (protein)
# chain: B1 chain with T220I, C281A
# modifications: Zea mays
# B17: A334N: bx9 SEQ ID NO:1 mutant (protein)
# chain: B1 chain with C281A, A334N
# modifications: Zea mays
# B18: A334L: bx9 SEQ ID NO:1 mutant (protein)
# chain: B1 chain with C281A, A334L
# modifications: Zea mays
# B19: A281R: bx9 SEQ ID NO:1 mutant (protein)
# chain: B1 chain with C281R
# modifications: Zea mays
# B20: T220E: bx9 SEQ ID NO:1 mutant (protein)
# chain: B1 chain with T220E, C281A
# modifications: Zea mays
# B21: A334S: bx9 SEQ ID NO:1 mutant (protein)
# chain: B1 chain with C281A, A334S
# modifications: Zea mays
# B22: A334R: bx9 SEQ ID NO:1 mutant (protein)
# chain: B1 chain with C281A, A334R
# modifications: Zea mays
# B23: T220N: bx9 SEQ ID NO:1 mutant (protein)
# chain: B1 chain with T220N, C281A
# modifications: Zea mays
# B24: G376L: bx9 SEQ ID NO:1 mutant (protein)
# chain: B1 chain with C281A, G376L
# modifications: Zea mays
# B25: T220M: bx9 SEQ ID NO:1 mutant (protein)
# chain: B1 chain with T220M, C281A
# modifications: Zea mays
# Assays:
# [1] = UDP luminescence plate assay of E. coli extracts, saturation mutants of SEQ ID NO: 1, herbicide V; format: biochemical, Zea mays; settings: improvement factor relative to w/t bx9 = 1.0, rounded to nearest 0.5; extract activity basis; compound V
# [2] = UDP luminescence plate assay of E. coli extracts, mutants of SEQ ID No: 1, 2 mM metribuzin; format: biochemical, Zea mays; settings: for SIGNAL: metribuzin signal of mutant divided by the signal of w/t bx9 / luminescence signal observed with 2 mM metribuzin / SIGNAL: metribuzin signal of mutant divided by metribuzin signal of w/t bx9 / luminescence signal with metribuzin: 2 mM metribuzin; for SIGNAL: metribuzin signal of mutant divided by the signal of w/t bx9: relative to bx9 w/t; for luminescence signal in the DMSO control: mutants of SEQ ID No: 1, DMSO in place of metribuzin (background UDP-glucose hydrolysis); for luminescence signal observed with 2 mM metribuzin: mutants of SEQ ID No: 1 in E. coli extracts, UDP luminescence; for RATIO of the metribuzin signal to the DMSO signal: 2 mM metribuzin vs DMSO control, same mutant; for luminescence signal with metribuzin: H24A null background 1.00E+05 not subtracted
# In short: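 Extracts of E. coli BL21 DE3 expressing C-terminally His-tagged SEQ ID NO:1 variants incubated with 2 mM metribuzin; UDP formed read by UDP-Glo luminescence against a UDP standard curve, with optional 95 C stop. Mutants ranked by metribuzin/DMSO signal ratio and signal increase over wild-type bx9.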
Molecule,Most Preferred amino acid substitutions and (IF) based on RLU/min/ul [1],SIGNAL: metribuzin signal of mutant divided by the signal of w/t bx9 [2],luminescence signal in the DMSO control [2],luminescence signal observed with 2 mM metribuzin [2],Preferred amino acid substitutions and (IF) based on RLU/min/ul [1],RATIO of the metribuzin signal to the DMSO signal [2],SIGNAL: metribuzin signal of mutant divided by metribuzin signal of w/t bx9 [2],luminescence signal with metribuzin [2]
B1,"C,Q(3.0)",1.58,4.80E+05,4.43E+05,,,,
B2,3.0,,,,,,,
B3,"C,Q(3.0)",2.82,7.59E+05,7.89E+05,,,,
B4,,1.22,4.88E+05,3.40E+05,"S,Q,V,L(1.5)",,,
B5,"L,M(3.0)",1.67,5.22E+05,4.68E+05,,0.90,,
B6,,,,,"C,A,N,E,L,I,M(1.5)",,,
B7,,1.13,2.80E+05,3.15E+05,"C,M(1.0)",1.13,,
B8,3.5,,,,,,,
B9,,1.57,4.80E+05,4.40E+05,"S,Q,V,L(1.5)",,,
B10,"L,M(3.0)",1.24,4.00E+05,3.47E+05,,,,
B11,,,,,"C,A,N,E,L,I,M(1.5)",,,
B12,,,,,"C,A,N,E,L,I,M(1.5)",,,
B13,5.0,2.59,8.45E+05,7.25E+05,,,,
B14,6.0,4.98,1.66E+06,1.39E+06,,,,
B15,,0.99,1.92E+05,2.76E+05,M(1.0),,0.86,1.07E+05
B16,,,,,"C,A,N,E,L,I,M(1.5)",,,
B17,,,,,N(1.0),,1.56,1.93E+05
B18,,1.51,5.19E+05,4.22E+05,"S,Q,V,L(1.5)",,,
B19,5.0,3.90,1.30E+06,1.09E+06,,,,
B20,,,,,"C,A,N,E,L,I,M(1.5)",,,
B21,,,,,"S,Q,V,L(1.5)",,0.98,1.21E+05
B22,"K,R(2.0)",,,,,,1.94,2.39E+05
B23,,,,,"C,A,N,E,L,I,M(1.5)",,,
B24,L(2.0),1.27,3.59E+05,3.56E+05,,0.99,,
B25,,,,,"C,A,N,E,L,I,M(1.5)",,,
